According to article PMC5499575 (Nucleic Acids Research, 2017):

Target: T1, HDA15-GST (Arabidopsis, UniProt Q8GXJ1 1-552)
T1 sequence (looked up): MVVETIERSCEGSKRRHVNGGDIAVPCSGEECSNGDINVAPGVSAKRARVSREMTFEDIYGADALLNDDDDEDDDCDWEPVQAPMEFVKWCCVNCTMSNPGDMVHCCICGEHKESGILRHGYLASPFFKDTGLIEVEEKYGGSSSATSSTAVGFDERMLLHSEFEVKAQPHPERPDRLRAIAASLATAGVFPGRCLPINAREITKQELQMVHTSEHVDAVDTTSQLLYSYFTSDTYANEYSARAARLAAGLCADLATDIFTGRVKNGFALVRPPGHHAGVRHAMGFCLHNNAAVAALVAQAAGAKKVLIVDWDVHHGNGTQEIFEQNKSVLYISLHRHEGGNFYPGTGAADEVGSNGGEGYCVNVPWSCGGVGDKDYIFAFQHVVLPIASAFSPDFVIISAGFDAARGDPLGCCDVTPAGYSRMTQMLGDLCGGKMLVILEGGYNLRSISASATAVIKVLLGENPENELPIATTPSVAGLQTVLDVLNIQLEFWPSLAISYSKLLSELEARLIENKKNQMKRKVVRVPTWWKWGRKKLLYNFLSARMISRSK
Test: pull-down

- binding result: binds
B1: PIF1-His (natural protein, Arabidopsis, UniProt Q8GZM7 1-478, looked up)
chain: MHHFVPDFDTDDDYVNNHNSSLNHLPRKSITTMGEDDDLMELLWQNGQVVVQNQRLHTKKPSSSPPKLLPSMDPQQQPSSDQNLFIQEDEMTSWLHYPLRDDDFCSDLLFSAAPTATATATVSQVTAARPPVSSTNESRPPVRNFMNFSRLRGDFNNGRGGESGPLLSKAVVRESTQVSPSATPSAAASESGLTRRTDGTDSSAVAGGGAYNRKGKAVAMTAPAIEITGTSSSVVSKSEIEPEKTNVDDRKRKEREATTTDETESRSEETKQARVSTTSTKRSRAAEVHNLSERKRRDRINERMKALQELIPRCNKSDKASMLDEAIEYMKSLQLQIQMMSMGCGMMPMMYPGMQQYMPHMAMGMGMNQPIPPPSFMPFPNMLAAQRPLPTQTHMAGSGPQYPVHASDPSRVFVPNQQYDPTSGQPQYPAGYTDPYQQFRGLHPTQPPQFQNQATSYPSSSRVSSSKESEDHGNHTTG
